Measured values reported in patent US20200262917A1 (Daiichi Sankyo, published 2020).

T1: human LAG-3 (full length, expressed on cells) (human, UniProt P18627 23-525)
T1 construct: also called CD223; hLAG-3
T1 sequence: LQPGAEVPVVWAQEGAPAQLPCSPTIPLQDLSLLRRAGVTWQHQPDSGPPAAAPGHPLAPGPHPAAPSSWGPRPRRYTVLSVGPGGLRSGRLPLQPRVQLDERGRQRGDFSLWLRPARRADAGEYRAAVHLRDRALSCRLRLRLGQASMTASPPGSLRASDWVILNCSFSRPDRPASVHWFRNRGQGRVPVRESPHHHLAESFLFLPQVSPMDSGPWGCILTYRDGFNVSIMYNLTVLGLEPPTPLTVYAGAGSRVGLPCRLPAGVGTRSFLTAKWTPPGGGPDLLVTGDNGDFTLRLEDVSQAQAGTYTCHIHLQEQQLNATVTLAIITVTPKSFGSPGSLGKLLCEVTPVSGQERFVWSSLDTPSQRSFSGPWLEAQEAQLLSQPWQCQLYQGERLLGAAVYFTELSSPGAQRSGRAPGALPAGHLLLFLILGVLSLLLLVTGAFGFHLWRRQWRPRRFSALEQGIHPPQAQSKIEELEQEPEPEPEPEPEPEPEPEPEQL

T2: LAG-3_D3D4-His: 3rd and 4th extracellular immunoglobulin-like domains (263-450) of human LAG-3 with … (UniProt P18627 263-450)
T2 chain: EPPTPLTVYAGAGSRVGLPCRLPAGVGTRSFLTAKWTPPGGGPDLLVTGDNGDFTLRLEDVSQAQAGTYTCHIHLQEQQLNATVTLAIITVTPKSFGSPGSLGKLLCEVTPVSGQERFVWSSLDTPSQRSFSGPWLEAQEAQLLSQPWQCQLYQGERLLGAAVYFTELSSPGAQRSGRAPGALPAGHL

T3: FLAG-D3D4: domain 3 and onwards (263-525) of human LAG-3 with N-terminal FLAG tag, on cells (human, UniProt P18627 263-525)
T3 construct: Expressed on HEK293T cells from pcDNA3.1; any leader before the FLAG tag is not described; also called construct containing domains 3 and 4
T3 sequence: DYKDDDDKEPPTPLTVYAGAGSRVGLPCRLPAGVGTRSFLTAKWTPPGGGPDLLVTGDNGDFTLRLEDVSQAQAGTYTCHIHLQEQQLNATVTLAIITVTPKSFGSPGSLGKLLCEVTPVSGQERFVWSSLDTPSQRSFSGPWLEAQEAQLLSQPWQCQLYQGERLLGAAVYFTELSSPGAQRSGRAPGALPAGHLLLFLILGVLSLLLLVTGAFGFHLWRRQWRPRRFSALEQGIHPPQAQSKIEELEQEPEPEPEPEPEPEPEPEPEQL

T4: FLAG-D4: domain 4 and onwards (353-525) of human LAG-3 with N-terminal FLAG tag, on cells (human, UniProt P18627 353-525)
T4 construct: Expressed on HEK293T cells from pcDNA3.1; any leader before the FLAG tag is not described; also called construct containing only domain 4
T4 sequence: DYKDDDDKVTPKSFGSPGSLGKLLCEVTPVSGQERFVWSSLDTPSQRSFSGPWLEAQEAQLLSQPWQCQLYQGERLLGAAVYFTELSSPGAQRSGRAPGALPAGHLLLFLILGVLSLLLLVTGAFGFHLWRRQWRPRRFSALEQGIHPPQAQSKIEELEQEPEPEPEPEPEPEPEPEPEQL


Columns and labels:
[1] = target: T1, human LAG-3 (full length, expressed on …); assay: flow cytometry on 293T-lacZ cells expressing human LAG-3
[2] = target: T2, LAG-3_D3D4-His: 3rd and 4th …; assay: SPR (Biacore T200)
[3] = target: T1, human LAG-3 (full length, expressed on …); assay: flow cytometry on PHA-activated human T cells (PHA blasts) expressing LAG-3
[4] = target: T3, FLAG-D3D4: domain 3 and onwards …; assay: flow cytometry on transfected HEK293T cells, antibody at 10 µg/mL
Procedure: (§1) It was further confirmed by flow cytometry that the antibody produced by the hybridomas determined to be positive by the Cell-ELISA in Example 1)-3 binds to PHA (phytohemagglutinin) activated human T cells (PHA blasts), a more physiologically relevant cell type expressing LAG-3. To human PBMCs stimulated with 2 μg/mL of PHA (manufactured by Sigma-Aldrich) for three days, was added a hybridoma culture supernatant for suspension, followed by reaction at 4° C. for 30 minutes. After washing with a FACS buffer (PBS, 0.1% BSA, and 0.1% sodium azide), a secondary antibody such as an Anti-Rat IgG PE conjugate (manufactured by Jackson ImmunoResearch Laboratories, Inc.) diluted 200-fold with a FACS buffer comprising a LIVE/DEAD Fixable Dead Cell Stain Kit-near-IR fluorescent reactive dye (manufactured by Invitrogen Corp.) was added thereto for suspension, followed by standing at 4° C. for 30 minutes. After washing with a FACS buffer, the cells were resuspended in PBS containing 1 to 2% paraformaldehyde, followed by detection using a flow cytometer (Cantoll: manufactured by Becton, Dickinson and Company or FC500: manufactured by Beckman Coulter Inc.). The data was analyzed using FlowJo (manufactured by Tree Star Inc). After removal of the LIVE/DEAD Fixable Dead Cell Stain Kit-near-IR fluorescent reactive dye-positive dead cells by gating, a histogram of the fluorescence intensity of the living cells was plotted.
(§2) Each expression plasmid (cloned into pcDNA3.1) of either domain 3 and onwards (263-525) or domain 4 and onwards (353-525) of human LAG-3 with a FLAG tag sequence ([…]) added to the N terminus was introduced into HEK293T cells using Lipofectamine 2000 (manufactured by Life Technologies Corp.), and the cells were cultured for 1 day and then recovered, to investigate the binding activity of the antibodies by flow cytometry according to the method described in Example 1)-4. […]

[5] = target: T4, FLAG-D4: domain 4 and onwards (353-525) …; assay: flow cytometry on transfected HEK293T cells
Procedure: as §1, §2

binding result [1]	Kd [2] [nM]	binding result [3]	binding result [4]	binding result [5]	Binder
binds	0.062	–	–	–	humanized anti-human LAG-3 antibody hLA212_H3/L2 (antibody, human IgG1, kappa, V domains shown, Human IgG1/kappa; not in a low fucose form; also called humanized hLA212_H3/L2) VH: EVQLVESGGGLVQPGGSLRLSCAASGFTYRSYVMAWVRQAPGKGLEWVASISTGGGNTYYRDSVKGRFTISRDNAKNTLYLQMDSLRAEDTAVYYCAEDMSNSGYGLFDYWGQGTLVTVSS VL: DIQMTQSPSSLSASVGDRVTITCKAGQNVDNNIAWYQQKPGQSPKLLIYYASNRNTGVPSRFSGSGYGTDFTLTISSLQPEDFATYYCQRISNSPYTFGQGTKVEIKR
binds	0.12	–	–	–	humanized anti-human LAG-3 antibody hLA212_H2/L5 (antibody, human IgG1, kappa, V domains shown, Human IgG1/kappa; also called humanized hLA212_H2/L5) VH: EVQLVESGGGLVQPGGSLRLSCAASGFTYRSYVMAWVRQAPGKGLEWVGSISTGGGNTYYRDSVKGRFTISRDNAKNTLYLQMNSLRAEDTAVYYCAEDMSNSGYGLFDYWGQGTLVTVSS VL: NIQMTQSPSSMSISVGDRVTMTCKAGQNVDNNIAWYQKKPGQSPKLLIYYASNRNTGVPDRFSGGGYGTDFTLTISSVQPEDAAFYYCQRISNSPYTFGQGTKLELKR
binds	–	–	–	–	human chimeric anti-LAG-3 antibody cLA212 (antibody, human IgG1, V domains shown, Human IgG1/kappa chimera; The C-terminal ends 470 and 234 are inferred from the humanized chains, which differ from cLA212 by substitutions only; also called rLA212 human chimeric antibody) VH: EVQLVESGGGLVQPGRSLKLSCAASGFTYRSYVMAWVRQAPTRGLEWVASISTGGGNTYYRDSVKGRFTISRDNAKNTLYLQMDSLRSEDTATYYCAEDMSNSGYGLFDYWGQGVMVTVSS VL: NIVMTQSPKSMSISVGDRVTMNCKAGQNVDNNIAWYQKKPGQSPKLLIYYASNRNTGVPDRFTGGGYGTDFTLTINSVQAEDAAFYYCQRISNSPYTFGAGTELELKR
binds	0.076	–	–	–	humanized anti-human LAG-3 antibody hLA212_H3/L4 (antibody, human IgG1, kappa, V domains shown, Human IgG1/kappa; also called humanized hLA212_H3/L4) VH: EVQLVESGGGLVQPGGSLRLSCAASGFTYRSYVMAWVRQAPGKGLEWVASISTGGGNTYYRDSVKGRFTISRDNAKNTLYLQMDSLRAEDTAVYYCAEDMSNSGYGLFDYWGQGTLVTVSS VL: DIQMTQSPSSMSISVGDRVTMTCKAGQNVDNNIAWYQKKPGQSPKLLIYYASNRNTGVPSRFSGSGSGTDFTLTISSVQPEDFATYYCQRISNSPYTFGQGTKLELKR
binds	0.12	–	–	–	humanized anti-human LAG-3 antibody hLA212_H2/L2 (antibody, human IgG1, kappa, V domains shown, Human IgG1/kappa; also called humanized hLA212_H2/L2) VH: EVQLVESGGGLVQPGGSLRLSCAASGFTYRSYVMAWVRQAPGKGLEWVGSISTGGGNTYYRDSVKGRFTISRDNAKNTLYLQMNSLRAEDTAVYYCAEDMSNSGYGLFDYWGQGTLVTVSS VL: DIQMTQSPSSLSASVGDRVTITCKAGQNVDNNIAWYQQKPGQSPKLLIYYASNRNTGVPSRFSGSGYGTDFTLTISSLQPEDFATYYCQRISNSPYTFGQGTKVEIKR
binds	0.11	–	–	–	humanized anti-human LAG-3 antibody hLA212_H2/L1 (antibody, human IgG1, kappa, V domains shown, Human IgG1/kappa; also called humanized hLA212_H2/L1) VH: EVQLVESGGGLVQPGGSLRLSCAASGFTYRSYVMAWVRQAPGKGLEWVGSISTGGGNTYYRDSVKGRFTISRDNAKNTLYLQMNSLRAEDTAVYYCAEDMSNSGYGLFDYWGQGTLVTVSS VL: DIQMTQSPSSLSASVGDRVTITCKAGQNVDNNIAWYQQKPGQAPKLLIYYASNRNTGVPSRFSGSGSGTDFTLTISSLQPEDFATYYCQRISNSPYTFGQGTKVEIKR
binds	0.096	–	–	–	humanized anti-human LAG-3 antibody hLA212_H2/L4 (antibody, human IgG1, kappa, V domains shown, Human IgG1/kappa; also called humanized hLA212_H2/L4) VH: EVQLVESGGGLVQPGGSLRLSCAASGFTYRSYVMAWVRQAPGKGLEWVGSISTGGGNTYYRDSVKGRFTISRDNAKNTLYLQMNSLRAEDTAVYYCAEDMSNSGYGLFDYWGQGTLVTVSS VL: DIQMTQSPSSMSISVGDRVTMTCKAGQNVDNNIAWYQKKPGQSPKLLIYYASNRNTGVPSRFSGSGSGTDFTLTISSVQPEDFATYYCQRISNSPYTFGQGTKLELKR
binds	0.092	–	–	–	humanized anti-human LAG-3 antibody hLA212_H3/L1 (antibody, human IgG1, kappa, V domains shown, Human IgG1/kappa; also called humanized hLA212_H3/L1) VH: EVQLVESGGGLVQPGGSLRLSCAASGFTYRSYVMAWVRQAPGKGLEWVASISTGGGNTYYRDSVKGRFTISRDNAKNTLYLQMDSLRAEDTAVYYCAEDMSNSGYGLFDYWGQGTLVTVSS VL: DIQMTQSPSSLSASVGDRVTITCKAGQNVDNNIAWYQQKPGQAPKLLIYYASNRNTGVPSRFSGSGSGTDFTLTISSLQPEDFATYYCQRISNSPYTFGQGTKVEIKR
binds	0.1	–	–	–	humanized anti-human LAG-3 antibody hLA212_H3/L3 (antibody, human IgG1, kappa, V domains shown, Human IgG1/kappa; also called humanized hLA212_H3/L3) VH: EVQLVESGGGLVQPGGSLRLSCAASGFTYRSYVMAWVRQAPGKGLEWVASISTGGGNTYYRDSVKGRFTISRDNAKNTLYLQMDSLRAEDTAVYYCAEDMSNSGYGLFDYWGQGTLVTVSS VL: NIQMTQSPSSLSASVGDRVTITCKAGQNVDNNIAWYQKKPGQSPKLLIYYASNRNTGVPDRFSGGGYGTDFTLTISSLQPEDFAFYYCQRISNSPYTFGQGTKVEIKR
binds	0.1	–	–	–	humanized anti-human LAG-3 antibody hLA212_H3/L5 (antibody, human IgG1, kappa, V domains shown, Human IgG1/kappa; also called humanized hLA212_H3/L5) VH: EVQLVESGGGLVQPGGSLRLSCAASGFTYRSYVMAWVRQAPGKGLEWVASISTGGGNTYYRDSVKGRFTISRDNAKNTLYLQMDSLRAEDTAVYYCAEDMSNSGYGLFDYWGQGTLVTVSS VL: NIQMTQSPSSMSISVGDRVTMTCKAGQNVDNNIAWYQKKPGQSPKLLIYYASNRNTGVPDRFSGGGYGTDFTLTISSVQPEDAAFYYCQRISNSPYTFGQGTKLELKR
binds	0.15	–	–	–	humanized anti-human LAG-3 antibody hLA212_H2/L3 (antibody, human IgG1, kappa, V domains shown, Human IgG1/kappa; also called humanized hLA212_H2/L3) VH: EVQLVESGGGLVQPGGSLRLSCAASGFTYRSYVMAWVRQAPGKGLEWVGSISTGGGNTYYRDSVKGRFTISRDNAKNTLYLQMNSLRAEDTAVYYCAEDMSNSGYGLFDYWGQGTLVTVSS VL: NIQMTQSPSSLSASVGDRVTITCKAGQNVDNNIAWYQKKPGQSPKLLIYYASNRNTGVPDRFSGGGYGTDFTLTISSLQPEDFAFYYCQRISNSPYTFGQGTKVEIKR
–	–	binds	binds	no binding (tested: 10 µg/mL)	rat anti-human LAG-3 monoclonal antibody rLA204 (antibody, V domains shown, the rat constant regions are not) VH: EVELVESGGGLVQPGRSMKLSCAASGFTFRTYGMAWVRQAPTKGLEWVASISTGGGSTYYRDSVKGRFTISRDNAKSTLYLQMDSLRSEDTATYYCTTDLINYPGIGGFAFWGQGTLVTVSS VL: NIVMTQSPKSMSISVGDRVTMNCKASQNVYNNIAWYQQKPGKSPKLLIYYASNRYTGVPDRFTGSGSGTDFTLTIHSVQAEDAAFYYCQRLYNSPPTFGGGTKLELKR
